Laboratory results taken from publication PMC8237399.

Assays:
[1] = target: filamin C (FLNc) Ig-like domains 23–24, wild type (human); assay: SEC-MALS
[2] = target: filamin C (FLNc) Ig-like domains 23–24, wild type (human); assay: cross-linking
[3] = target: filamin C (FLNc) Ig-like domains 23–24, wild type (human); assay: cross-linking; remark: listed apart in the source

Measured: stoichiometry N

filamin C (FLNc) Ig-like domains 23–24, wild type (domain or fragment)
2: all assays above
